Literature values, collected in publication PMC1854907.

Biological target: SCP2 PTS1 peptide (Homo sapiens)
Assay: ITC

Pex5p(C) C-terminal domain (from UniProt P50542)
Kd: 664 nM
